Results as given in patent publication US6448059.

Columns and labels:
[1] = target: T1, cysteine-tRNA synthetase (CysRS) (Haemophilus influenzae) (UniProt P43816); settings: kcat/Km of aminoacylation, 37 C; relative 1.4
T1 sequence: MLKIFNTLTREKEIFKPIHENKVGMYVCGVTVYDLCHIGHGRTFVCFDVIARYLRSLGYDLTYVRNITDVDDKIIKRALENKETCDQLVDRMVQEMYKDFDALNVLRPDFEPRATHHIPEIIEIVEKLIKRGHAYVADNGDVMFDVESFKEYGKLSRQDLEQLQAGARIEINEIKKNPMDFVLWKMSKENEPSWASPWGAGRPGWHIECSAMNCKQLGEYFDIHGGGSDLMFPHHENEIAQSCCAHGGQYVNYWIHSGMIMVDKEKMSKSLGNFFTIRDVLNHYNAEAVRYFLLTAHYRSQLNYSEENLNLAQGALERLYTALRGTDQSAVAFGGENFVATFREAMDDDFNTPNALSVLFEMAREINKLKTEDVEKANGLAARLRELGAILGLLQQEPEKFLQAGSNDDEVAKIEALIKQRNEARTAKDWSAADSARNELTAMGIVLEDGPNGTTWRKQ

[2] = target: T2, cysteine-tRNA synthetase (CysRS) (Escherichia coli) (UniProt P21888); settings: kcat/Km of aminoacylation, 37 C; relative 1.6
T2 sequence: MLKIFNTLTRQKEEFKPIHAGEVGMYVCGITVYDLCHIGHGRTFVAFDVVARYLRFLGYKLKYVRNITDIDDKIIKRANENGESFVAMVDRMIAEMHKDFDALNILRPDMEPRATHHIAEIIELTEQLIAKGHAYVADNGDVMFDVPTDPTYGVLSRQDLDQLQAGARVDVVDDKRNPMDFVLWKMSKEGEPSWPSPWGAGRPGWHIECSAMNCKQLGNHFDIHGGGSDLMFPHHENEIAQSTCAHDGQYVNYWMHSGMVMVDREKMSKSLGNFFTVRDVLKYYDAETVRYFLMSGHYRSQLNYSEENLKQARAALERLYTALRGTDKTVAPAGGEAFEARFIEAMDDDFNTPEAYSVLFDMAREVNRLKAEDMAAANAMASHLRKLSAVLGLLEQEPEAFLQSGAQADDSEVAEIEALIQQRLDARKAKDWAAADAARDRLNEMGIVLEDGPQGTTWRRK

B. subtilis tRNACys
activity [1]: 250000 M⁻¹ s⁻¹ | activity [2]: 340000 M⁻¹ s⁻¹
